We go through five proteins from patent US20150239975A1 (KOREA RESEARCH INSTITUTE OF BIOSCIENCE AND BIOTECHNOLOGY, published 2015).

The data set concerns the target T1, transmembrane 4 L six family member 5 (TM4SF5) protein (human, UniProt O14894 1-197).
T1 sequence (looked up): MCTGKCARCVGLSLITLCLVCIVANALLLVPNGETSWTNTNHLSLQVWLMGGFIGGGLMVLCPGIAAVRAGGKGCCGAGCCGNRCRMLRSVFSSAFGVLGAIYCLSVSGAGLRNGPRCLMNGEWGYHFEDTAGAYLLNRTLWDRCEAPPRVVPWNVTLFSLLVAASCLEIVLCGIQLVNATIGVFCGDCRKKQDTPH
Put plainly: cell-based or functional assay.

B1: monoclonal antibody #88 (scFv-Fc form) (Fc fusion, not shown: a dimerising Fc or GST)
scFv: QVQLQQFGAELVRPGASVKLSCKASGYTFTDYEMHWVKQTPVHGLEWIGAIDPETGGTAYNQKFKGKATLTADKSSSTAYMELRSLTSEDSAVYYCTPNYWYFDVWGAGTSVTVSSADAVVTQTPLSLPVSLGDQASISCRSSQSLVHSNGNTYLHWYLQKPGQSPKLLIYKVSNRFSGVPDRFSGSGSGTDFTLKISRVEAEDLGVYFCSQSTHVPYTFGGGTKLELK
Consider B1, for which the “inhibition of growth of TM4SF5-overexpressing liver cancer cells (Tp, T16) in the absence of serum, 20 µg/mL antibody” value is around 50% and the “inhibition of infiltration of TM4SF5-overexpressing liver cancer cells (Tp), transwell assay, 20 µg/mL antibody” value is 73%.

B2: monoclonal antibody #92 (scFv-Fc form) (Fc fusion, not shown: a dimerising Fc or GST)
scFv: EVQLQQSVADLVRPGASVKLSCTASGFNIENTYMHWVKQRPEQGLEWIGRIDPANGNTKYAPKFQDKATITADTSSNTAYLQLSSLTSEDTAVYYCTSLGAYWGQGTLVTVSAADAVLTQTPLSLPVSLGDQASISCRSSQSIVHSNGNTYLEWYLQKPGQSPKLLIYKVSNRFSGVPDRFSGSGSGTDFTLKISRVEAEDLGVYFCSQSTHVPLTFGAGTKLEIK
As to B2, the “inhibition of growth of TM4SF5-overexpressing liver cancer cells (Tp, T16) in the absence of serum, 20 µg/mL antibody” value was around 50% and the “inhibition of infiltration of TM4SF5-overexpressing liver cancer cells (Tp), transwell assay, 20 µg/mL antibody” value is 46%.

B3: monoclonal antibody #1 (scFv-Fc form) (Fc fusion, not shown: a dimerising Fc or GST)
scFv: EVQLQQFGAELVRPGASVTLSCKASGYTFTDYEMHWVKQTPVHGLEWIGAIDPETGGTAYNQKFKGKAILTADKSSSTAYMELRSLTSEDSAVYFCARLTLFYGNYDWPFDVWGTGTSVTVSSADIVMTQSQKFMSTSVGDRVSITCKASQNVRTAVAWYQQKPGQSPKLLIYWASTRHTGVPDRFTGSGSGTDFTLTISNVQSEDLADYFCQQYSSYPFTFGSGTKLEIK
B3: the “inhibition of invasion of TM4SF5-overexpressing liver cancer cells (Tp), transwell assay, 20 µg/mL antibody” value (shortened to “inhibition of invasion … 20 µg/mL antibody”) is 83%.

B4: monoclonal antibody #79 (scFv-Fc form) (Fc fusion, not shown: a dimerising Fc or GST)
scFv: GVQLQQSGAELVRPGASVKLSCKASGYTFTDYEMHWVKQTPVHGLEWIGAIDPETGGTAYNQKFKGKAILTADKSSSTAYMELRSLTSEDSAVYYCTVYGLAYWGQGTLVTVSAADVVMTQTPLSLPVSLGDQASISCRSSQSLVHSNGNTYLHWYLQKPGQSPKLLIYKVSNRFSGVPDRFSGSGSGTDFTLKISRVEAEDLGVYFCSQNTHVPYTFGGGTKLELK
Take B4: the “inhibition of invasion … 20 µg/mL antibody” value came out at 49%.

B5: monoclonal antibody #27 (scFv-Fc form) (Fc fusion, not shown: a dimerising Fc or GST)
scFv: QVQLQQFGAELVRPGASVTLSCKASGYTFTDYEMHWVKQTPVHGLEWIGAIDPETGGTAYNQKFKGKAILTADKSSSTAYMELRSLTSEDSAVYYCTRPYLGYWGQGTTVTVSSADAVVTQTPLSLPVSLGDQASISCRSSQSLVHSNGNTYLHWYLQKPGQSPKLLIYKVSNRFSGVPDRFSGSGSGTDFTLKISRVEAEDLGVYYCFQGSHIPLTFGAGTKLELK
Regarding B5, the “inhibition of invasion … 20 µg/mL antibody” value was found to be 56%.
